The text below walks through data of paper PMC10872421.

The target in test [1] is FMAL-labeled RLC-exchanged full-length cardiac myosin (porcine (ventricles) | human) (UniProt P79293). The experiment in a line: FRET or BRET. For orientation: Bioluminescence resonance energy transfer reports proximity on the nanometre scale.
Test [2] deals with FMAL-labeled F-actin (rabbit) (UniProt P68135). In words: FRET or BRET.
The target is the same in test [3]. The experiment in a line: co-sedimentation.
Test [4] addresses FMAL-labeled F-actin (rabbit skeletal muscle) (rabbit) (UniProt P68135). The experiment in a line: FRET or BRET.

A word on the pEC50: it is −log10 of the EC50, conventionally taken in molar units. Read a low pEC50 as a large EC50.

pEC50: −log10 of the molar value.

In test [1], “C0-C2^(cys249, E334K), PKA-phosphorylated (domain or fragment)” returned an FLT-FRET at 2.5 μM relative to WT (relative to WT) of 1.7.

Take “C0-C2^(cys249, L349R) (domain or fragment)”: the FLT-FRET at 2.5 μM relative to WT (relative to WT) in test [2] was determined as 1.1.

As for “C0-C2^(cys249, L349R), PKA-phosphorylated (domain or fragment)”, the FLT-FRET at 2.5 μM relative to WT (relative to WT) in test [2] turned out to be 1.31.

“C0-C2^(cys330, E334K), PKA-phosphorylated (domain or fragment)” registered an FLT-FRET at 2.5 μM relative to WT (relative to WT) in test [1] of 2.

Consider “C0-C2^(cys330, L349R) (domain or fragment)”, for which the FLT-FRET at 2.5 μM relative to WT (relative to WT) in test [1] came to 1.6.

In test [2], “C0-C2^(cys330, R282W) (domain or fragment)” gave an FLT-FRET at 2.5 μM relative to WT (relative to WT) of 1.1.

Consider C0-C2^cys85 (domain or fragment), for which the pEC50 was 5.85 in test [2] and 5.05 in test [1].

Take “C0-C2^cys85, PKA-phosphorylated (domain or fragment)”: in test [2], the fold change of EC50 upon phosphorylation came to 2.9 fold and the reduction of FRET at 2.5 μM upon phosphorylation came to 52%. In test [3], this substance showed a fold increase of EC50 upon phosphorylation of 1.1 fold.

Take C0-C2^cys249 (domain or fragment): the pEC50 in test [2] is 5.52; in test [1], 5.47.

In test [2], “C0-C2^cys249, PKA-phosphorylated (domain or fragment)” showed a fold change of EC50 upon phosphorylation of 1.7 fold and a reduction of FRET at 2.5 μM upon phosphorylation of 52%. In test [3], this substance came in with a fold increase of EC50 upon phosphorylation of 1.6 fold.

In the case of C0-C2^cys330 (domain or fragment), the pEC50 in test [2] is 5.20; in test [1] it was 5.16.

The substance “TMR-C0-C2^(cys249, L352P) (domain or fragment)” had a pEC50 in test [4] of 5.88.

In turn, TMR-C0-C2^cys249 (domain or fragment) gave a pEC50 in test [4] of 5.67.
